According to patent US20030153012A1:

Key:
[1] = biological target: hen egg white lysozyme (hen) (UniProt P00698); experiment: fluorescence emission, excitation at 469 nm, lysozyme at 100 nM and 1 uM, three preparations
[2] = biological target: hen egg white lysozyme (hen) (UniProt P00698); experiment: fluorescence emission after addition of lysozyme, excitation at 469 nm, several preparations
[3] = biological target: hen egg white lysozyme (hen) (UniProt P00698); experiment: fluorescence at 535 nm, excitation at 480 nm, lysozyme 10 nM to 2 uM in 50 mM Tris-HCl, 150 mM NaCl, pH 7.5

UniProt P00698, sequence (P00698 19-147 limits assumed): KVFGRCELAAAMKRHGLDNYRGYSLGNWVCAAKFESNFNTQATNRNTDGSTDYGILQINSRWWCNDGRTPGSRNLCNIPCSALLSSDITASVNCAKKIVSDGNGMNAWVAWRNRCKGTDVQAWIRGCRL

B1: scFv-His6(VL-S93ANBD) conjugate (scFv)
scFv: EVKLQESGPGLVAPSQSLSITCTVSGFSLTGYGVNWVRQPPGKGLEWLGMIWGDGNTDYNSALKSRLSISKDNSKSQVFLKMNSLHTDDTARYYCARERDYRLDYWGQGTTVTVSSGGGGSGGGGSGGGGSDIELTQSPASLSASVGETVTITCRASGNIHNYLAWYQQKQGKSPQLLVYYTTTLADGVPSRFSGSGSGTQYSLKINSLQPEDFGSYYCQHFWCTPRTFGGGTKLEIKRPLEHHHHHH
modifications: chain 1 pos 224 (VL Cys93): Cys whose S-gamma is coupled to the fluorophore IANBD (ANBD adduct), written C
maximum enhancement of fluorescence [1]: 27% | fluorescence intensity at saturation relative to the free biosensor [2]: 1.26 times | increase of fluorescence intensity at saturation [3]: 91%
